Measured values published in the supplement of paper PMC10065799, “High-throughput profiling of sequence recognition by tyrosine kinases and SH2 domains using bacterial peptide display” (eLife, 2023).

Legend:
Fyn = Fyn (UniProt P06241); experiment: phosphorylation enrichment, bacterial display (enrichment ratio); higher = better substrate or ligand; peptides without Tyr show the background
Fes = Fes (UniProt P07332); experiment: as above
AncSZ = experiment: as above
Jak2 = Jak2 (UniProt O60674); experiment: as above
c-Src = experiment: as above
MERTK = MERTK (UniProt Q12866); experiment: as above
EPHB2 = EPHB2 (UniProt P29323); experiment: as above
c-Abl (mouse) = experiment: as above
EPHB1 = EPHB1 (UniProt P54762); experiment: as above
Fer (mouse) = experiment: as above
FGFR3 = FGFR3 (UniProt P22607); experiment: as above
Hck = Hck (UniProt P08631); experiment: as above
FGFR1 = FGFR1 (UniProt P11362); experiment: as above
SHP2-C SH2 = experiment: SH2 binding enrichment of the phosphorylated peptide, bacterial display (enrichment ratio); higher = better substrate or ligand; peptides without Tyr show the background
Grb2 SH2 = Grb2 SH2 (UniProt P62993); experiment: as above
c-Src SH2 = experiment: as above
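For SH2 binding enrichment of the phosphorylated peptide, bacterial display in this document: peptide library displayed on the E. coli surface as eCPX fusions, selected cells deep-sequenced, score is each peptide's frequency after selection divided by its frequency in the input.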
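For phosphorylation enrichment, bacterial display in this document: 11-residue human phosphosite peptides and single-mutation variants displayed on the E. coli surface, counted by deep sequencing, each peptide's frequency after selection divided by its frequency in the unselected input library; frequency after pTyr selection over input frequency; kinase dosed for 20-30% of maximal phosphorylation in three min.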

Sequence of Jak2 (O60674 whole entry, looked up): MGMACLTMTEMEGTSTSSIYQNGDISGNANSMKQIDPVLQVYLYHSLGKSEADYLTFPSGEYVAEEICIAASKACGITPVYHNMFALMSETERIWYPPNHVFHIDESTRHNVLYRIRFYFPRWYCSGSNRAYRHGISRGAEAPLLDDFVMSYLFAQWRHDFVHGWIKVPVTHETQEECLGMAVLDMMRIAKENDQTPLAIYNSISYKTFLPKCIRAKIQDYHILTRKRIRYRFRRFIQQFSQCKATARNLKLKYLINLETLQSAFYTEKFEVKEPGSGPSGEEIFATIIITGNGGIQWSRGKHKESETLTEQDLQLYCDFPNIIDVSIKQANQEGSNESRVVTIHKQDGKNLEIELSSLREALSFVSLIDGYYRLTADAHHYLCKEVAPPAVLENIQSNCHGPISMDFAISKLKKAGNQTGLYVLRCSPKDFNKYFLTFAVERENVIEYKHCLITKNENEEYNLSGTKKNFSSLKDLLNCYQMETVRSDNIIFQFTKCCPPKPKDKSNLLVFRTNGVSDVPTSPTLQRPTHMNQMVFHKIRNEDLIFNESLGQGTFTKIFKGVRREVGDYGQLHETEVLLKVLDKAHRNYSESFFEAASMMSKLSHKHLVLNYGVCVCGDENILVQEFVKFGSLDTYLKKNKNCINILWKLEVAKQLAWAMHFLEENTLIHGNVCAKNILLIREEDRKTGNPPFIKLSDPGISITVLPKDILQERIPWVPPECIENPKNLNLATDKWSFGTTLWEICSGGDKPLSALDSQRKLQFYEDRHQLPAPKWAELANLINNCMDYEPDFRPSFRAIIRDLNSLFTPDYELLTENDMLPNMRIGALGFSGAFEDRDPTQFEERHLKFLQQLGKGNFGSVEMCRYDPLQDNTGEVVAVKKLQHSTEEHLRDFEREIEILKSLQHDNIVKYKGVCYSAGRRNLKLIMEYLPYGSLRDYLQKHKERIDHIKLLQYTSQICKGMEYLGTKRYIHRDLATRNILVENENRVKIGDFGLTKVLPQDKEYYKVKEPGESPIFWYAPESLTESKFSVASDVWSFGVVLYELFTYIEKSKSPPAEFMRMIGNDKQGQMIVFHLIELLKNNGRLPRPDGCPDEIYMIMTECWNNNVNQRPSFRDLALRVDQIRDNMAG
Sequence of EPHB2 (P29323 whole entry, looked up): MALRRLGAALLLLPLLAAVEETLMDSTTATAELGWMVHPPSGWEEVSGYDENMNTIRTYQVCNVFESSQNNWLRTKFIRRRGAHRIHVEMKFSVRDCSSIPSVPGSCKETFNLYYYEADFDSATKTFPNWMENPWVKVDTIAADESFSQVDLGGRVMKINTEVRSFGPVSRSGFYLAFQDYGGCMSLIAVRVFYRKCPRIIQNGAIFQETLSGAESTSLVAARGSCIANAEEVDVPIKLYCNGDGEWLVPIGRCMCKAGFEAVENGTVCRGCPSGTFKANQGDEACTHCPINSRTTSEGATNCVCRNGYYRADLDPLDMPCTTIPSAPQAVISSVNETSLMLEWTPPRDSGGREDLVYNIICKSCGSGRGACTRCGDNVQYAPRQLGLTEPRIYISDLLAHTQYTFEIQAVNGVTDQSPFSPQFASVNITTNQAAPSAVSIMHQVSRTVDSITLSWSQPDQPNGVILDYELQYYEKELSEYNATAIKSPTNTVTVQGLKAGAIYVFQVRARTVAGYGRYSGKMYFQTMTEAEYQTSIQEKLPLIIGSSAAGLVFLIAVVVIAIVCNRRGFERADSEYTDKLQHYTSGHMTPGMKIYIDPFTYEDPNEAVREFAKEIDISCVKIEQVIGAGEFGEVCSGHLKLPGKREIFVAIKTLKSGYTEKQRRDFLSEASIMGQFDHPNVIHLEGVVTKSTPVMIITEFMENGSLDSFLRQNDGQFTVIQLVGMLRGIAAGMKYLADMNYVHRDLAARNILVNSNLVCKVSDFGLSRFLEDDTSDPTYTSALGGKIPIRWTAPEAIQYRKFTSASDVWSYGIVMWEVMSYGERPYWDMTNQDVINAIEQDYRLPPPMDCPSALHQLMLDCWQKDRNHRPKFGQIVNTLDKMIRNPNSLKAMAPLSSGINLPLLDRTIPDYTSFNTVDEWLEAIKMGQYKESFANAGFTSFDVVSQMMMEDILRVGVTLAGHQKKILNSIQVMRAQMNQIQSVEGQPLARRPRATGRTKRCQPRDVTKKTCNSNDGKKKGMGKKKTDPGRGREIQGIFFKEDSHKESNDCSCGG
Sequence of Fes (P07332 whole entry, looked up): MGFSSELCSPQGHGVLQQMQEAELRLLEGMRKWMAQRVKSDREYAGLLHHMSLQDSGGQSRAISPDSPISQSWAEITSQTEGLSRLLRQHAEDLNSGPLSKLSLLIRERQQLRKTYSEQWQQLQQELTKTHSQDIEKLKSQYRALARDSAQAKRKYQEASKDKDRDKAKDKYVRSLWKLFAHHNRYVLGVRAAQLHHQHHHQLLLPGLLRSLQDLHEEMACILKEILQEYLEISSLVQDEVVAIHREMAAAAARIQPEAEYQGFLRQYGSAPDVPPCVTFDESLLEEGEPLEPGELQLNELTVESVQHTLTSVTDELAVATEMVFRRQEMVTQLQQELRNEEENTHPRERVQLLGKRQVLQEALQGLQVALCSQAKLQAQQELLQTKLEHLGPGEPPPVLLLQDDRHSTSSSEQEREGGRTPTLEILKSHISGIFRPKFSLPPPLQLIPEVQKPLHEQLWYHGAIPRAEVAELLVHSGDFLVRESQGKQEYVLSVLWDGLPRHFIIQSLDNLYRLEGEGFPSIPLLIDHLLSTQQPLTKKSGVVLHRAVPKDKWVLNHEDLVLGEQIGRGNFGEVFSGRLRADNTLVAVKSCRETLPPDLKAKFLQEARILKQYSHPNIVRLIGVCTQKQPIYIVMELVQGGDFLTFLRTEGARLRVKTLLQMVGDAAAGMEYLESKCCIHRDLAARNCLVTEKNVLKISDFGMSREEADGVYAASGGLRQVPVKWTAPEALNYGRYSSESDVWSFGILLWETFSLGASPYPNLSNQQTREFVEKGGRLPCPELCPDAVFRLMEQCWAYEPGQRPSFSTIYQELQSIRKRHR
Sequence of MERTK (Q12866 whole entry, looked up): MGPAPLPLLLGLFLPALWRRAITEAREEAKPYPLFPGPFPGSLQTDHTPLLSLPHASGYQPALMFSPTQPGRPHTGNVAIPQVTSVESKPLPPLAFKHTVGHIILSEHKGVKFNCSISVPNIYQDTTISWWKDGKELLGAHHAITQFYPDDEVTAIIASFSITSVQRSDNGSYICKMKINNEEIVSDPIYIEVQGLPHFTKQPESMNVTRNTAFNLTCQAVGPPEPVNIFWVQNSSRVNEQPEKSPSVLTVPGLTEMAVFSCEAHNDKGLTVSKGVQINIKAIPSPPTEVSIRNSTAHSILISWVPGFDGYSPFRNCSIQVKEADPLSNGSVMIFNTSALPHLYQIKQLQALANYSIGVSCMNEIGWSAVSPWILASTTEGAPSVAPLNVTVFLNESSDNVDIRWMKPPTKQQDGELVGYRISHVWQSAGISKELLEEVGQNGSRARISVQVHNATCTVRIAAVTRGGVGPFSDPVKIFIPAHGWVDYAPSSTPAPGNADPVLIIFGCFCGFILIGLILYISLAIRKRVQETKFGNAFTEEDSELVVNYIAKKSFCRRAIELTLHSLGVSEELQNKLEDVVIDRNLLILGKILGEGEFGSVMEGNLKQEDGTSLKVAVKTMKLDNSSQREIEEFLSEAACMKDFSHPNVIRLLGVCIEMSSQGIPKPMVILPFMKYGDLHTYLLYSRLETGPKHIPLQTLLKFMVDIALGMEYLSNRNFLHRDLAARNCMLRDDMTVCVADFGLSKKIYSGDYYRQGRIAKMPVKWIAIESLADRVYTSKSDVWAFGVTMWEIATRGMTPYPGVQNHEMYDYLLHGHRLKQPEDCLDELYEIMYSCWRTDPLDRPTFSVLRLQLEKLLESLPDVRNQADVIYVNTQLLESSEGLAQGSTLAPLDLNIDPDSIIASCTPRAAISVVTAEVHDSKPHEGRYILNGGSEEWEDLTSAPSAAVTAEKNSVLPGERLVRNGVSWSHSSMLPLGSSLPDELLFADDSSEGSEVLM
Sequence of Hck (P08631 whole entry, looked up): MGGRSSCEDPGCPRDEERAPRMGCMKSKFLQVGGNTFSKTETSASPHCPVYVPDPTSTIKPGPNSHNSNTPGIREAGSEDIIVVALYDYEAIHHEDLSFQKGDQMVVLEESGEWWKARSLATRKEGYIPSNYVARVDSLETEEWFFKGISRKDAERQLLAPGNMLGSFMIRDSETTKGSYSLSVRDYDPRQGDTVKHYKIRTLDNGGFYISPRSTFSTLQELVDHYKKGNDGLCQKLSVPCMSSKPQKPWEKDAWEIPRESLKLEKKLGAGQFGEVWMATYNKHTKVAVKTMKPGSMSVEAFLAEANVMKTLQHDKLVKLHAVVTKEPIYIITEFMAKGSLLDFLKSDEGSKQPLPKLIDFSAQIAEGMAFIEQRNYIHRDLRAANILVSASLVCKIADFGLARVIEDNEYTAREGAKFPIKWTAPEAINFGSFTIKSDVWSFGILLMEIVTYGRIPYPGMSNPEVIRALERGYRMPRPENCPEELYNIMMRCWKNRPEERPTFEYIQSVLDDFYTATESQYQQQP
Sequence of Fyn (P06241 whole entry, looked up): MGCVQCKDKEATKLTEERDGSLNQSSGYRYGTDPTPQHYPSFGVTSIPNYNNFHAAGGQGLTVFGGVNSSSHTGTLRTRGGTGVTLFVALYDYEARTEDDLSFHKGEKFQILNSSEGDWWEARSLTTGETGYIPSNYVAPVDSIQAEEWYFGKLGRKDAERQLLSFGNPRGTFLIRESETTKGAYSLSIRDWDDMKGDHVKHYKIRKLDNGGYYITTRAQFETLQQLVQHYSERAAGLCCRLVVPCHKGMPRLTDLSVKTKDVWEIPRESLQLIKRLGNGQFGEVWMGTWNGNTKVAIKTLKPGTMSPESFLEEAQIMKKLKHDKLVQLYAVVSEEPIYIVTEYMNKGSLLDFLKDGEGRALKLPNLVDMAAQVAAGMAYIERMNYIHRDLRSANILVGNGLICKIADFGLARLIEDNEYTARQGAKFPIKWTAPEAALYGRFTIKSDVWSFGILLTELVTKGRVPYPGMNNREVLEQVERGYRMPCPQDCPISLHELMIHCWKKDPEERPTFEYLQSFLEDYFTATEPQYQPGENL

FFHKFYNKSED [RYR1_Y4864_R4861H]
phosphorylation enrichment (Fyn): 0.558
phosphorylation enrichment (Fes): 1.43
phosphorylation enrichment (AncSZ): 1
phosphorylation enrichment (Jak2): 1.09
phosphorylation enrichment (c-Src): 0.588
phosphorylation enrichment (MERTK): 0.761
phosphorylation enrichment (EPHB2): 0.719
phosphorylation enrichment (c-Abl (mouse)): 0.72
phosphorylation enrichment (EPHB1): 0.727
phosphorylation enrichment (Fer (mouse)): 0.497
phosphorylation enrichment (FGFR3): 0.948
phosphorylation enrichment (Hck): 0.616
phosphorylation enrichment (FGFR1): 0.665
SH2 binding enrichment (SHP2-C SH2): 0.746
SH2 binding enrichment (Grb2 SH2): 0.741
SH2 binding enrichment (c-Src SH2): 0.521

IMITGYLLLFR [INSR_Y87_D86G]
phosphorylation enrichment (Fyn): 0.63
phosphorylation enrichment (Fes): 1.4
phosphorylation enrichment (AncSZ): 1.19
phosphorylation enrichment (Jak2): 1.02
phosphorylation enrichment (c-Src): 0.419
phosphorylation enrichment (MERTK): 0.668
phosphorylation enrichment (EPHB2): 0.547
phosphorylation enrichment (c-Abl (mouse)): 1.13
phosphorylation enrichment (EPHB1): 0.521
phosphorylation enrichment (Fer (mouse)): 0.593
phosphorylation enrichment (FGFR3): 0.866
phosphorylation enrichment (Hck): 0.57
phosphorylation enrichment (FGFR1): 0.721
SH2 binding enrichment (SHP2-C SH2): 1.83
SH2 binding enrichment (Grb2 SH2): 2.37
SH2 binding enrichment (c-Src SH2): 0.899

EYITRYIASLK [PSMA7_Y110]
phosphorylation enrichment (Fyn): 0.416
phosphorylation enrichment (Fes): 0.717
phosphorylation enrichment (AncSZ): 0.708
phosphorylation enrichment (Jak2): 0.526
phosphorylation enrichment (c-Src): 0.477
phosphorylation enrichment (MERTK): 0.499
phosphorylation enrichment (EPHB2): 0.416
phosphorylation enrichment (c-Abl (mouse)): 0.569
phosphorylation enrichment (EPHB1): 0.498
phosphorylation enrichment (Fer (mouse)): 0.414
phosphorylation enrichment (FGFR3): 0.415
phosphorylation enrichment (Hck): 0.51
phosphorylation enrichment (FGFR1): 0.456
SH2 binding enrichment (SHP2-C SH2): 1.46
SH2 binding enrichment (Grb2 SH2): 1.05
SH2 binding enrichment (c-Src SH2): 0.57

RHLREYQDLLI [DES_Y388_N393I]
phosphorylation enrichment (Fyn): 0.655
phosphorylation enrichment (Fes): 1.21
phosphorylation enrichment (AncSZ): 0.912
phosphorylation enrichment (Jak2): 0.74
phosphorylation enrichment (c-Src): 0.482
phosphorylation enrichment (MERTK): 0.482
phosphorylation enrichment (EPHB2): 0.744
phosphorylation enrichment (c-Abl (mouse)): 0.708
phosphorylation enrichment (EPHB1): 1.02
phosphorylation enrichment (Fer (mouse)): 0.636
phosphorylation enrichment (FGFR3): 0.813
phosphorylation enrichment (Hck): 0.592
phosphorylation enrichment (FGFR1): 0.899
SH2 binding enrichment (SHP2-C SH2): 0.851
SH2 binding enrichment (Grb2 SH2): 1.59
SH2 binding enrichment (c-Src SH2): 1.79

PLLEFYRDIFT [CDAN1_Y713_YF]
phosphorylation enrichment (Fyn): 0.669
phosphorylation enrichment (Fes): 2.2
phosphorylation enrichment (AncSZ): 1.85
phosphorylation enrichment (Jak2): 2
phosphorylation enrichment (c-Src): 0.816
phosphorylation enrichment (MERTK): 0.81
phosphorylation enrichment (EPHB2): 0.874
phosphorylation enrichment (c-Abl (mouse)): 1.18
phosphorylation enrichment (EPHB1): 0.95
phosphorylation enrichment (Fer (mouse)): 0.732
phosphorylation enrichment (FGFR3): 1.33
phosphorylation enrichment (Hck): 0.626
phosphorylation enrichment (FGFR1): 0.822
SH2 binding enrichment (SHP2-C SH2): 0.966
SH2 binding enrichment (Grb2 SH2): 0.857
SH2 binding enrichment (c-Src SH2): 0.473

GVCKNYAEAKD [ALB_Y343_D338G]
phosphorylation enrichment (Fyn): 0.371
phosphorylation enrichment (Fes): 0.729
phosphorylation enrichment (AncSZ): 0.749
phosphorylation enrichment (Jak2): 0.556
phosphorylation enrichment (c-Src): 0.392
phosphorylation enrichment (MERTK): 0.385
phosphorylation enrichment (EPHB2): 0.511
phosphorylation enrichment (c-Abl (mouse)): 0.6
phosphorylation enrichment (EPHB1): 0.469
phosphorylation enrichment (Fer (mouse)): 0.359
phosphorylation enrichment (FGFR3): 0.585
phosphorylation enrichment (Hck): 0.498
phosphorylation enrichment (FGFR1): 0.551
SH2 binding enrichment (SHP2-C SH2): 0.705
SH2 binding enrichment (Grb2 SH2): 0.886
SH2 binding enrichment (c-Src SH2): 0.825

PTFENYANSTQ [SLC12A3_Y70_H69N_YF]
phosphorylation enrichment (Fyn): 0.437
phosphorylation enrichment (Fes): 1.08
phosphorylation enrichment (AncSZ): 0.853
phosphorylation enrichment (Jak2): 0.895
phosphorylation enrichment (c-Src): 0.391
phosphorylation enrichment (MERTK): 0.572
phosphorylation enrichment (EPHB2): 0.711
phosphorylation enrichment (c-Abl (mouse)): 0.531
phosphorylation enrichment (EPHB1): 0.542
phosphorylation enrichment (Fer (mouse)): 0.52
phosphorylation enrichment (FGFR3): 0.539
phosphorylation enrichment (Hck): 0.766
phosphorylation enrichment (FGFR1): 0.615
SH2 binding enrichment (SHP2-C SH2): 0.369
SH2 binding enrichment (Grb2 SH2): 1.62
SH2 binding enrichment (c-Src SH2): 0.787

FTGSTYRVGDT [FN1_Y106_N104S_YF]
phosphorylation enrichment (Fyn): 0.37
phosphorylation enrichment (Fes): 0.703
phosphorylation enrichment (AncSZ): 0.631
phosphorylation enrichment (Jak2): 0.783
phosphorylation enrichment (c-Src): 0.484
phosphorylation enrichment (MERTK): 0.551
phosphorylation enrichment (EPHB2): 0.384
phosphorylation enrichment (c-Abl (mouse)): 0.448
phosphorylation enrichment (EPHB1): 0.41
phosphorylation enrichment (Fer (mouse)): 0.492
phosphorylation enrichment (FGFR3): 0.431
phosphorylation enrichment (Hck): 0.404
phosphorylation enrichment (FGFR1): 0.425
SH2 binding enrichment (SHP2-C SH2): 0.482
SH2 binding enrichment (Grb2 SH2): 0.731
SH2 binding enrichment (c-Src SH2): 0.443

DEQKKYFNAMK [SCN5A_Y1494_E1489D_YF]
phosphorylation enrichment (Fyn): 0.394
phosphorylation enrichment (Fes): 0.883
phosphorylation enrichment (AncSZ): 0.68
phosphorylation enrichment (Jak2): 0.952
phosphorylation enrichment (c-Src): 0.548
phosphorylation enrichment (MERTK): 0.448
phosphorylation enrichment (EPHB2): 0.428
phosphorylation enrichment (c-Abl (mouse)): 0.815
phosphorylation enrichment (EPHB1): 0.374
phosphorylation enrichment (Fer (mouse)): 0.437
phosphorylation enrichment (FGFR3): 0.474
phosphorylation enrichment (Hck): 0.419
phosphorylation enrichment (FGFR1): 0.592
SH2 binding enrichment (SHP2-C SH2): 1.03
SH2 binding enrichment (Grb2 SH2): 0.856
SH2 binding enrichment (c-Src SH2): 0.554

CPEASYNRSPI [PTAR1_Y42_R41S]
phosphorylation enrichment (Fyn): 0.489
phosphorylation enrichment (Fes): 1.09
phosphorylation enrichment (AncSZ): 0.82
phosphorylation enrichment (Jak2): 0.882
phosphorylation enrichment (c-Src): 0.528
phosphorylation enrichment (MERTK): 0.585
phosphorylation enrichment (EPHB2): 0.565
phosphorylation enrichment (c-Abl (mouse)): 0.781
phosphorylation enrichment (EPHB1): 0.602
phosphorylation enrichment (Fer (mouse)): 0.825
phosphorylation enrichment (FGFR3): 0.701
phosphorylation enrichment (Hck): 0.521
phosphorylation enrichment (FGFR1): 0.58
SH2 binding enrichment (SHP2-C SH2): 0.588
SH2 binding enrichment (Grb2 SH2): 0.763
SH2 binding enrichment (c-Src SH2): 0.471

AVEDQYFRVDC [FHL1_Y207_C209R_YF]
phosphorylation enrichment (Fyn): 0.552
phosphorylation enrichment (Fes): 1.38
phosphorylation enrichment (AncSZ): 2.04
phosphorylation enrichment (Jak2): 1.6
phosphorylation enrichment (c-Src): 0.519
phosphorylation enrichment (MERTK): 0.499
phosphorylation enrichment (EPHB2): 0.568
phosphorylation enrichment (c-Abl (mouse)): 0.838
phosphorylation enrichment (EPHB1): 0.655
phosphorylation enrichment (Fer (mouse)): 0.626
phosphorylation enrichment (FGFR3): 3.33
phosphorylation enrichment (Hck): 0.542
phosphorylation enrichment (FGFR1): 4.27
SH2 binding enrichment (SHP2-C SH2): 0.892
SH2 binding enrichment (Grb2 SH2): 0.934
SH2 binding enrichment (c-Src SH2): 0.591

KRRGPYETSPS [PLPP7_Y172]
phosphorylation enrichment (Fyn): 0.491
phosphorylation enrichment (Fes): 0.495
phosphorylation enrichment (AncSZ): 0.599
phosphorylation enrichment (Jak2): 0.539
phosphorylation enrichment (c-Src): 0.614
phosphorylation enrichment (MERTK): 0.405
phosphorylation enrichment (EPHB2): 0.403
phosphorylation enrichment (c-Abl (mouse)): 0.526
phosphorylation enrichment (EPHB1): 0.345
phosphorylation enrichment (Fer (mouse)): 0.446
phosphorylation enrichment (FGFR3): 0.397
phosphorylation enrichment (Hck): 0.399
phosphorylation enrichment (FGFR1): 0.414
SH2 binding enrichment (SHP2-C SH2): 0.377
SH2 binding enrichment (Grb2 SH2): 0.549
SH2 binding enrichment (c-Src SH2): 0.493

TESNNYIFTTL [FAM83B_Y637_K640T_YF]
phosphorylation enrichment (Fyn): 0.539
phosphorylation enrichment (Fes): 1.27
phosphorylation enrichment (AncSZ): 1.12
phosphorylation enrichment (Jak2): 1.11
phosphorylation enrichment (c-Src): 0.537
phosphorylation enrichment (MERTK): 0.612
phosphorylation enrichment (EPHB2): 0.641
phosphorylation enrichment (c-Abl (mouse)): 0.982
phosphorylation enrichment (EPHB1): 0.687
phosphorylation enrichment (Fer (mouse)): 0.722
phosphorylation enrichment (FGFR3): 0.912
phosphorylation enrichment (Hck): 0.571
phosphorylation enrichment (FGFR1): 1.02
SH2 binding enrichment (SHP2-C SH2): 0.821
SH2 binding enrichment (Grb2 SH2): 0.922
SH2 binding enrichment (c-Src SH2): 0.502

ATHRGYDSDNP [MMUT_Y146]
phosphorylation enrichment (Fyn): 0.404
phosphorylation enrichment (Fes): 0.731
phosphorylation enrichment (AncSZ): 0.586
phosphorylation enrichment (Jak2): 0.523
phosphorylation enrichment (c-Src): 0.365
phosphorylation enrichment (MERTK): 0.363
phosphorylation enrichment (EPHB2): 0.444
phosphorylation enrichment (c-Abl (mouse)): 0.548
phosphorylation enrichment (EPHB1): 0.342
phosphorylation enrichment (Fer (mouse)): 0.418
phosphorylation enrichment (FGFR3): 0.472
phosphorylation enrichment (Hck): 0.471
phosphorylation enrichment (FGFR1): 0.377
SH2 binding enrichment (SHP2-C SH2): 0.533
SH2 binding enrichment (Grb2 SH2): 0.998
SH2 binding enrichment (c-Src SH2): 0.536

RLLRGYDQFAF [HLA-B_Y137_H137Y_YF]
phosphorylation enrichment (Fyn): 0.591
phosphorylation enrichment (Fes): 1.21
phosphorylation enrichment (AncSZ): 0.885
phosphorylation enrichment (Jak2): 0.785
phosphorylation enrichment (c-Src): 0.542
phosphorylation enrichment (MERTK): 0.645
phosphorylation enrichment (EPHB2): 0.725
phosphorylation enrichment (c-Abl (mouse)): 0.798
phosphorylation enrichment (EPHB1): 0.505
phosphorylation enrichment (Fer (mouse)): 0.696
phosphorylation enrichment (FGFR3): 0.627
phosphorylation enrichment (Hck): 0.664
phosphorylation enrichment (FGFR1): 0.617
SH2 binding enrichment (SHP2-C SH2): 1.25
SH2 binding enrichment (Grb2 SH2): 1.16
SH2 binding enrichment (c-Src SH2): 0.999

GVLDIYGFDIL [MYO1A_Y382_E385D]
phosphorylation enrichment (Fyn): 3.78
phosphorylation enrichment (Fes): 1.07
phosphorylation enrichment (AncSZ): 0.978
phosphorylation enrichment (Jak2): 0.955
phosphorylation enrichment (c-Src): 2.69
phosphorylation enrichment (MERTK): 0.465
phosphorylation enrichment (EPHB2): 0.566
phosphorylation enrichment (c-Abl (mouse)): 0.69
phosphorylation enrichment (EPHB1): 0.67
phosphorylation enrichment (Fer (mouse)): 0.524
phosphorylation enrichment (FGFR3): 0.621
phosphorylation enrichment (Hck): 2.12
phosphorylation enrichment (FGFR1): 0.448
SH2 binding enrichment (SHP2-C SH2): 0.784
SH2 binding enrichment (Grb2 SH2): 0.839
SH2 binding enrichment (c-Src SH2): 0.427
